Measurements taken from the Human Domainome abundance scans (Beltran et al. 2025).

B1: MEF2-activating motif and SAP domain-containing transcriptional regulator, residues 170 to 204; numbered along this chain, Q6ZN01 (parent)
chain: LKLEELTVSELRQQLRLRGLPVSGTKSMLLERMRG
B2: Storkhead-box protein 2, residues 64 to 141; numbered along this chain, Q9P2F5 (parent)
chain: SPISQSQFIPLGEILCLAISAMNSARKPVTQEALMEHLTTCFPGVPTPSQEILRHTLNTLVRERKIYPTPDGYFIVTP

Variants of: B1
Assay: abundance fitness (aPCA) (normalised: wild type 0, dead -1); higher = more abundant; growth selection in yeast, the domain comes from the species named
Conditions: Homo sapiens

Abundance fitness, by site and new letter:
V22: Q -0.108 | D -0.046 | P -0.701 | A 0.052 | Y 0.298 | L -0.209 | S -0.168 | I -0.262 | T 0.152 | E 0.025 | N -0.407 | W -0.595 | C -0.255 | R -0.375
L17: E -0.089 | P -0.988 | T -0.081 | V -0.054 | Q -0.032 | W -0.307 | C -0.102 | M -0.087 | R -0.155 | F -0.271 | S -0.249 | G -0.238
E5: V -0.329 | G -0.359 | R -0.239 | Y -0.424 | S -0.188 | Q -0.306 | P -0.335 | L -0.548 | A -0.218 | W -0.776 | C -0.183 | T -0.271
L15: E -0.38 | C 0.149 | N -0.308 | T -0.43 | W -1 | S -0.215 | Y -0.661 | Q -0.339 | V -0.37 | M -0.185 | D -0.599 | G -0.391 | P -0.6 | R -0.712 | K -0.361 | A 0.11
S23: Y -0.106 | W -0.883 | E 0.025 | A -0.103 | C -0.274 | V -0.16 | K -0.198 | D 0.233 | M -0.222 | P -0.838 | L -0.349 | Q -0.147 | G -0.007 | R -0.384 | N -0.02
R18: V -0.128 | N -0.299 | Q 0.03 | K -0.119 | L 0.074 | A -0.009 | M 0.126 | G -0.523 | T -0.239 | P -0.336 | E -0.14 | S -0.206 | W -0.147
G19: F -0.639 | V -1.02 | K -0.227 | A -0.746 | Q -0.402 | C -0.559 | S -0.34 | R -0.337 | E -0.261 | H -0.211 | P -0.558 | W -0.863 | T -0.683 | I -0.417
K2: L -0.444 | D -0.496 | C -0.136 | P -0.572 | E 0.007 | R -0.042 | S -0.201 | W -0.159 | N -0.128
L6: E -0.369 | T -0.632 | G -0.533 | I -0.266 | A -0.314 | H -0.434 | Q -0.236 | R -0.458 | N -0.166 | D -0.356 | V -0.399 | Y -0.384 | W -0.175 | C -0.299
R16: Y -0.613 | F -0.086 | W -0.129 | D -0.331 | K 0.284 | Q -0.207 | L -0.027 | A 0.04 | M -0.07 | G -0.081 | E 0.001 | S -0.095 | C -0.107 | P -0.96
T7: Q -0.336 | D -0.111 | H -0.48 | A -0.519 | W -0.518 | S -0.071 | K -0.184 | G -0.199 | C -0.594 | P -0.227 | V -1.29 | E -0.347 | L -0.768 | N -0.249 | M -0.598
E10: R -0.552 | A -0.425 | M -0.608 | K -0.354 | T -0.782 | C -0.678 | I -0.781 | F -0.895 | S -0.454 | D -0.402 | Q -0.216 | G -0.509 | W -0.728
P21: K -0.494 | T -0.235 | N -0.303 | A -0.184 | E -0.036 | S -0.129 | G -0.297 | D -0.094 | W -0.854 | F -1.08 | V -0.335 | H -0.727 | Y -0.909 | C -0.347 | M -0.655 | Q -0.317 | R -0.39
L11: F -1.08 | I -0.206 | E -0.864 | R -0.565 | V -0.59 | C -1.03 | Q -0.568 | W -0.897 | K -0.623 | Y -0.497 | S -0.542 | G -0.657 | H -0.811 | P -0.64 | M -0.331 | A -0.678
L1: S -0.12 | Y 0.02 | W -0.045 | E 0.136 | N 0.092 | V -0.134 | K -0.05 | I 0.108 | G -0.364 | R -0.262 | F -0.19
S9: P -0.291 | E 0.181 | C -0.347 | N 0.182 | W -0.142 | D 0.173 | K 0.084 | L -0.275 | M 0.122 | G -0.111 | Y -0.345 | V -0.121 | A 0.016 | R -0.09 | Q 0.164
Q13: W -0.28 | H 0.054 | I -0.036 | L -0.174 | F -0.101 | V -0.11 | S -0.203 | D -0.075 | M -0.134 | E -0.1 | A -0.285 | C -0.163 | G -0.251 | K 0.015 | R -0.23
Q14: Y -0.326 | P -0.863 | D -0.551 | W -0.141 | K -0.175 | V -0.222 | A 0.135 | G -0.35 | C -0.313 | N -0.441 | H -0.192 | R -0.174 | F -0.401 | M 0.023 | T -0.45
E4: V -1.08 | A -0.667 | D -0.035 | N -0.017 | T -0.171 | H -0.046 | M -0.41 | Y -0.804 | L -0.919 | S -0.23 | Q -0.317 | G -0.574 | F -0.679 | I -0.464 | C -0.518 | P -0.394
R12: G -0.593 | Y -0.495 | V -0.304 | S -0.29 | M -0.32 | N -0.961 | Q -0.016 | T -0.199 | L -0.523 | A -0.361 | C -0.387 | K -0.072 | P -0.602 | D -0.488
L20: S -0.731 | F -0.329 | Q -0.587 | W -0.626 | G -0.669 | Y -0.284 | E -0.192 | I -0.646 | V -0.575 | M -0.005 | A -0.296 | T -0.879 | R -0.914 | K -0.555
V8: D -0.38 | S -0.28 | C -0.486 | L -0.099 | H -0.486 | A 0.142 | N -0.387 | P -0.39 | M -0.206 | Q -0.648 | Y -0.576 | E 0.026 | K -0.066 | R -0.309 | W -0.03 | G -0.429
L3: F 0.065 | V -0.272 | Y -0.556 | W -0.434 | S -0.22 | Q -0.296 | E -0.249 | G -0.304 | D -0.098 | R -0.416 | K 0.017 | C -1.03 | P -0.14 | A -0.275
G24: L -1.01 | P -0.829 | M -0.768 | S -0.817 | Q -0.935 | E -0.335 | R -0.867 | K -1.25

Variants of: B2
Assay: as above
Conditions: Homo sapiens

Abundance fitness, by site and new letter:
P78: V -0.182 | Y -0.098
